Reference: patent US20240117018A1

Key:
Assay in all cases: cell-based or functional assay
[1] = biological target: Env of HIV-1 pseudovirus 1054_07_TC4_1499 (HIV-1)
[2] = biological target: Env of HIV-1 pseudovirus AC10.0.29 (HIV-1)
[3] = biological target: Env of HIV-1 pseudovirus CNE52 (HIV-1)
[4] = biological target: Env of HIV-1 pseudovirus 191955_A11 (HIV-1)
[5] = biological target: Env of HIV-1 pseudovirus Q23.17 (HIV-1)
[6] = biological target: Env of HIV-1 pseudovirus 1394C9G1(Rev-) (HIV-1)
[7] = biological target: Env of HIV-1 pseudovirus ZM233M.PB6 (HIV-1)
[8] = biological target: Env of HIV-1 pseudovirus Ce0393_C3 (HIV-1)
[9] = biological target: Env of HIV-1 pseudovirus SC422661.8 (HIV-1)
[10] = biological target: Env of HIV-1 pseudovirus Ce703010054_2A2 (HIV-1)
[11] = biological target: Env of HIV-1 pseudovirus ZM214M.PL15 (HIV-1)
[12] = biological target: HIV-1 Env pseudovirus Du172.17 (HIV-1)
[13] = biological target: HIV-1 Env pseudovirus CNE21 (HIV-1)
[14] = biological target: HIV-1 Env pseudovirus QH0692.42 (HIV-1)
[15] = biological target: HIV-1 Env pseudovirus CNE52 (HIV-1)
[16] = biological target: HIV-1 Env pseudovirus ZM247v1(Rev-) (HIV-1)
[17] = biological target: HIV-1 Env pseudovirus TRJO4551.58 (HIV-1)
[18] = biological target: HIV-1 Env pseudovirus WITO4160.33 (HIV-1)
[19] = biological target: HIV-1 Env pseudovirus CNE53 (HIV-1)
[20] = biological target: HIV-1 Env pseudovirus Ce2060_G9 (HIV-1)
[21] = biological target: HIV-1 Env pseudovirus WEAU_d15_410_787 (HIV-1)
[22] = biological target: HIV-1 Env pseudovirus ZM249M.PL1 (HIV-1)
[23] = biological target: HIV-1 Env pseudovirus Q259.d2.17 (HIV-1)

Substance 10E8 (antibody) has an IC50 [1] of 0.046 µg/mL, an IC80 [1] of 0.305 µg/mL and an IC50 [2] of 0.132 µg/mL. For the same substance, the IC80 [2] was 1.53 µg/mL, the IC50 [3] was 0.304 µg/mL and the IC80 [3] was 3.06 µg/mL. The IC50 [4] was 0.68 µg/mL, the IC80 [4] was 3.53 µg/mL and the IC50 [5] was 1.64 µg/mL. For the same substance, the IC80 [5] was 7.04 µg/mL, the IC50 [6] was 0.963 µg/mL and the IC80 [6] was 5.33 µg/mL. The IC50 [7] was 0.442 µg/mL, the IC80 [7] was 2.39 µg/mL and the IC50 [8] was 1.18 µg/mL. The IC80 [8] was 7.42 µg/mL, the IC50 [9] was 0.445 µg/mL and the IC80 [9] was 2.71 µg/mL. It also gave an IC50 [10] of 2.3 µg/mL, an IC80 [10] of 8.58 µg/mL and an IC50 [11] of 1.96 µg/mL. It also gave an IC80 [11] greater than 10 µg/mL.
For PG16 (antibody), the IC50 [1] was greater than 50 µg/mL, the IC80 [1] was greater than 50 µg/mL and the IC50 [2] was 0.023 µg/mL. The IC80 [2] was 0.417 µg/mL, the IC50 [3] was 0.009 µg/mL and the IC80 [3] was 0.026 µg/mL. It also gave an IC50 [4] of 0.009 µg/mL, an IC80 [4] of 0.042 µg/mL and an IC50 [5] of 0.008 µg/mL. The IC80 [5] was 0.043 µg/mL, the IC50 [6] was 0.008 µg/mL and the IC80 [6] was 0.056 µg/mL. The IC50 [7] was 0.002 µg/mL, the IC80 [7] was 0.006 µg/mL and the IC50 [8] was 0.002 µg/mL. It also gave an IC80 [8] of 0.006 µg/mL, an IC50 [9] of 0.858 µg/mL and an IC80 [9] greater than 50 µg/mL. The IC50 [10] was 0.008 µg/mL, the IC80 [10] was 0.053 µg/mL and the IC50 [11] was greater than 50 µg/mL. For the same substance, the IC80 [11] was greater than 50 µg/mL.
With PG9 (antibody) the IC50 [1] was greater than 50 µg/mL, the IC80 [1] was greater than 50 µg/mL and the IC50 [2] was 0.117 µg/mL. It also gave an IC80 [2] of 0.845 µg/mL, an IC50 [3] of 0.029 µg/mL and an IC80 [3] of 0.081 µg/mL. The IC50 [4] was 0.053 µg/mL, the IC80 [4] was 0.154 µg/mL and the IC50 [5] was 0.027 µg/mL. It also gave an IC80 [5] of 0.082 µg/mL, an IC50 [6] of 0.029 µg/mL and an IC80 [6] of 0.114 µg/mL. It also gave an IC50 [7] of 0.01 µg/mL, an IC80 [7] of 0.026 µg/mL and an IC50 [8] of 0.02 µg/mL. The IC80 [8] was 0.055 µg/mL, the IC50 [9] was 0.553 µg/mL and the IC80 [9] was 7.05 µg/mL. For the same substance, the IC50 [10] was 0.022 µg/mL, the IC80 [10] was 0.103 µg/mL and the IC50 [11] was greater than 50 µg/mL. It also gave an IC80 [11] greater than 50 µg/mL.
In the case of 10-1074 (antibody), the IC50 [1] is reported as 0.129 µg/mL, the IC80 [1] is reported as 0.563 µg/mL and the IC50 [2] is reported as 0.022 µg/mL. For the same substance, the IC80 [2] was 0.11 µg/mL, the IC50 [3] was 1.23 µg/mL and the IC80 [3] was 13.1 µg/mL. It also gave an IC50 [4] greater than 50 µg/mL, an IC80 [4] greater than 50 µg/mL and an IC50 [5] of 0.006 µg/mL. It also gave an IC80 [5] of 0.021 µg/mL, an IC50 [6] of 0.05 µg/mL and an IC80 [6] of 0.191 µg/mL. It also gave an IC50 [7] of 0.06 µg/mL, an IC80 [7] of 0.349 µg/mL and an IC50 [8] greater than 50 µg/mL. The IC80 [8] was greater than 50 µg/mL, the IC50 [9] was 0.091 µg/mL and the IC80 [9] was 0.418 µg/mL. For the same substance, the IC50 [10] was greater than 50 µg/mL, the IC80 [10] was greater than 50 µg/mL and the IC50 [11] was 0.174 µg/mL. The IC80 [11] was 2.37 µg/mL.
N49P7.2 (antibody) was tested, and the IC50 [12] was 0.29 µg/mL, the IC80 [12] was 1.08 µg/mL and the MPI [12] was 100. For the same substance, the IC50 [13] was 48.3 µg/mL, the IC80 [13] was greater than 50 µg/mL and the MPI [13] was 51. It also gave an IC50 [14] of 1.26 µg/mL, an IC80 [14] of 4.42 µg/mL and an MPI [14] of 100. It also gave an IC50 [15] of 0.03 µg/mL, an IC80 [15] of 0.088 µg/mL and an MPI [15] of 100. For the same substance, the IC50 [16] was 0.177 µg/mL, the IC80 [16] was 2.5 µg/mL and the MPI [16] was 96. It also gave an IC50 [17] of 0.21 µg/mL, an IC80 [17] of 0.673 µg/mL and an MPI [17] of 100. The IC50 [18] was 0.051 µg/mL, the IC80 [18] was 0.215 µg/mL and the MPI [18] was 100. It also gave an IC50 [19] of 0.1 µg/mL, an IC80 [19] of 0.277 µg/mL and an MPI [19] of 100. It also gave an IC50 [20] of 0.821 µg/mL, an IC80 [20] of 2.81 µg/mL and an MPI [20] of 100. It also gave an IC50 [21] of 0.052 µg/mL, an IC80 [21] of 0.15 µg/mL and an MPI [21] of 100. The IC50 [22] was 0.073 µg/mL, the IC80 [22] was 0.256 µg/mL and the MPI [22] was 100. It also gave an IC50 [23] of 38.5 µg/mL, an IC80 [23] greater than 50 µg/mL and an MPI [23] of 54.
With N49P18.1 (antibody) the IC50 [12] was 6.52 µg/mL, the IC80 [12] was 21.3 µg/mL and the MPI [12] was 92. The IC50 [13] was 7.93 µg/mL, the IC80 [13] was 29.2 µg/mL and the MPI [13] was 95. The IC50 [14] was greater than 50 µg/mL, the IC80 [14] was greater than 50 µg/mL and the MPI [14] was 43. It also gave an IC50 [15] of 2.46 µg/mL, an IC80 [15] of 6.65 µg/mL and an MPI [15] of 100. The IC50 [16] was 10.9 µg/mL, the IC80 [16] was greater than 50 µg/mL and the MPI [16] was 79. It also gave an IC50 [17] of 4.44 µg/mL, an IC80 [17] of 14.7 µg/mL and an MPI [17] of 99. It also gave an IC50 [18] of 11 µg/mL, an IC80 [18] of 37.6 µg/mL and an MPI [18] of 87. For the same substance, the IC50 [19] was 4.08 µg/mL, the IC80 [19] was 21.8 µg/mL and the MPI [19] was 97. For the same substance, the IC50 [20] was greater than 50 µg/mL, the IC80 [20] was greater than 50 µg/mL and the MPI [20] was 37. The IC50 [21] was 4.27 µg/mL, the IC80 [21] was 15.5 µg/mL and the MPI [21] was 98. It also gave an IC50 [22] of 4.16 µg/mL, an IC80 [22] of 19.8 µg/mL and an MPI [22] of 98. For the same substance, the IC50 [23] was greater than 50 µg/mL, the IC80 [23] was greater than 50 µg/mL and the MPI [23] was 37.
